This note sets out measurements from article PMC6713926, “Structural Basis for Properdin Oligomerization and Convertase Stimulation in the Human Complement System” (Frontiers in Immunology, 2019).

The target in one assay is T1, Biotinylated C3b (human, UniProt P01024 23-667; P01024 749-1663, biotin (Maleimide-PEG2-Biotin)).
T1 construct: complement C3, human, beta chain; complement C3, human, alpha' chain of C3b; also called biotin-C3b; immobilized C3b; source: made from plasma C3 by trypsin cleavage in the presence of Maleimide-PEG2-Biotin, purified by cation exchange
The assay can be described thus: BLI; biotinylated C3b on streptavidin sensors; FB variants at 40 μg/mL; 20 mM MES pH 6.0, 100 mM NaCl, 0.05% Tween, 1 mg/mL BSA, 5 mM MgCl2. The settings on record: both partners purified.

In assay [1] the target is T2, FPhtΔ3, FP head-tail monomer without TSR3 (Homo sapiens, UniProt P27918).
T2 construct: properdin (FP), human, TB-TSR2 (FPhΔ3), made from FPh by a stop codon between TSR2 and TSR3; properdin (FP), human, TSR4-6 tail fragment (FPt); The methods name FPhtΔ3 for the crystals with C3bBbSCIN and hFPNb1, the results FPcΔ3; also called FPcΔ3 (so called in the results for the nanobody complex); FPΔ3
The assay can be described thus: crystal structure; C3bBbSCIN-FPhtΔ3-hFPNb1 complex, 6.2 Å; 100 mM NaCl, 5% PEG4000, 10 mM MgCl2, 100 mM sodium cacodylate pH 5.8. The following applies: both partners purified.

The target in assay [2] is T3, WT FP, recombinant oligomeric properdin (human, UniProt P27918).
T3 construct: properdin (FP), human, wild type; Secreted oligomers; preparations of ~50% dimer and 50% trimer, and of ~90% dimer and 10% trimer, were used; also called oligomeric FP; dimeric FP; source: also in cell supernatant
The assay can be described thus: pull-down; 50 μg hFPNb1 added to HEK293F supernatants of WT FP or E244 mutants, captured on Ni-NTA beads, washed with 500 mM NaCl, eluted with 400 mM imidazole. The settings on record: one partner purified.

T3 sequence (P27918 28-469): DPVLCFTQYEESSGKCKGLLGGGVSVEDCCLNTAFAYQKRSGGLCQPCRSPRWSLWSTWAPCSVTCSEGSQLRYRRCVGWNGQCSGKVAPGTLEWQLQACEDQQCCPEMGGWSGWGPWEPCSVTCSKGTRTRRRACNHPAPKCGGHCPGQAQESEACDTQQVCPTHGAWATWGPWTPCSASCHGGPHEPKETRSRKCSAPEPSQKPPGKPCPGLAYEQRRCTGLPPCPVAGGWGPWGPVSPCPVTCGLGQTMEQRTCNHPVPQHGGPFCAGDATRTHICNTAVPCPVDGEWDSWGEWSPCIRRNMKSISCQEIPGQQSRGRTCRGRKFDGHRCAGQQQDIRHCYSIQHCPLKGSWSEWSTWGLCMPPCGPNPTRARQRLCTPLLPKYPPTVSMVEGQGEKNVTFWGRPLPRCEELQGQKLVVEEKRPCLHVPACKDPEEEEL
T1 sequence (P01024 23-667, chain 1 of 2): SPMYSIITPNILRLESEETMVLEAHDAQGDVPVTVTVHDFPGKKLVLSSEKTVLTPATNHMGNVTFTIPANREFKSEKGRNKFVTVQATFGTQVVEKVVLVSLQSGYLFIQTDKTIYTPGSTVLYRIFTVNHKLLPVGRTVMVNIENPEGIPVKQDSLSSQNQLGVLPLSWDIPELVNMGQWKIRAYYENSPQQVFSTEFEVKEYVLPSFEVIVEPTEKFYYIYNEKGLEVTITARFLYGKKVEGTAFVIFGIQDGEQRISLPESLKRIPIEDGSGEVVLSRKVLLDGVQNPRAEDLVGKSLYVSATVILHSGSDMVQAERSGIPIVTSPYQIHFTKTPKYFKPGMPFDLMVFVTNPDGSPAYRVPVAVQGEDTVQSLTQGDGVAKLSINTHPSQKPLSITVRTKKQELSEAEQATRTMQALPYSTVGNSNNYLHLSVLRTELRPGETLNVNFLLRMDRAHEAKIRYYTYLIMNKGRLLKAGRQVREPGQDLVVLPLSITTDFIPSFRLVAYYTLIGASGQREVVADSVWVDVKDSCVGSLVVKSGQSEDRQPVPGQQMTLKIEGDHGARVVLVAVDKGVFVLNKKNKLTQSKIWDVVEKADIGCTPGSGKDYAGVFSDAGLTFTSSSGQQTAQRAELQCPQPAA
T1 sequence (P01024 749-1663, chain 2 of 2): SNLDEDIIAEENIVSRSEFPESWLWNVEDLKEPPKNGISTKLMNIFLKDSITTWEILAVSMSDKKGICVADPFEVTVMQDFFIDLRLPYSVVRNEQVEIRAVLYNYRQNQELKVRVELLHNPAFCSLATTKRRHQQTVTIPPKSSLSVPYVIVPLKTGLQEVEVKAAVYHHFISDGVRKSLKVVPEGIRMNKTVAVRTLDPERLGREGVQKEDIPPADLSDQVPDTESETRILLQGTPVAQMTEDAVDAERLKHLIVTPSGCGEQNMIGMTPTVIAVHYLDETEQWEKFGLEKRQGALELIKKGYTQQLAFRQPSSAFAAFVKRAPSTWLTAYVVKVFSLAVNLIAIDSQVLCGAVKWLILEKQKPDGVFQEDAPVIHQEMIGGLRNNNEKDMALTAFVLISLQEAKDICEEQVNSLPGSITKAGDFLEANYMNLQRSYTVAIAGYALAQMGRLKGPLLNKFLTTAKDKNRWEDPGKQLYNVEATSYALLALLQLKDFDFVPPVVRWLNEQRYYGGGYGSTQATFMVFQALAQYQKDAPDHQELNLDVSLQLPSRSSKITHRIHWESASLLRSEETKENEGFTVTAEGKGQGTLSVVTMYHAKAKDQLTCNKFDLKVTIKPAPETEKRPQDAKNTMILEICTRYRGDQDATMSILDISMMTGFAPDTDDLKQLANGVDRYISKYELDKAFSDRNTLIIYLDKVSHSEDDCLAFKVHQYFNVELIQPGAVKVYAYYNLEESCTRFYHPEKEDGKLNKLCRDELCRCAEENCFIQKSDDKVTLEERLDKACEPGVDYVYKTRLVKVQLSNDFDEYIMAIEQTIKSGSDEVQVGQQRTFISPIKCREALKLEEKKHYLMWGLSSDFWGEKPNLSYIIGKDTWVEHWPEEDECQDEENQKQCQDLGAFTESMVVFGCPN
T2 sequence (P27918 whole entry, looked up, stated change not applied, the tested form may be a part): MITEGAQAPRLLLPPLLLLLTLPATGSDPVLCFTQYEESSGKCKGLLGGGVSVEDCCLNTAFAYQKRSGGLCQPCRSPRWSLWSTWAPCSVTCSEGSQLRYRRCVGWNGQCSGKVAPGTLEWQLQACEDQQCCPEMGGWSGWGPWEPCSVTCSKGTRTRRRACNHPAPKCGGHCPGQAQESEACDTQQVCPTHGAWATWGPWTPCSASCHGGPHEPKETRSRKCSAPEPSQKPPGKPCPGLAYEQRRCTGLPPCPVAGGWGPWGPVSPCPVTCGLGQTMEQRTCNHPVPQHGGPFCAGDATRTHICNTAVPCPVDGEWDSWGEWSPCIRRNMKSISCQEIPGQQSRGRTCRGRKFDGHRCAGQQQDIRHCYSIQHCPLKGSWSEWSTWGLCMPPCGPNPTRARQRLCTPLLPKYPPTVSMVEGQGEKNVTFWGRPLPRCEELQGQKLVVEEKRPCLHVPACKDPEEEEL

B1: Recombinant FB D279G, S699A, K348A, L349A, K350A (enzyme, human, UniProt P00751 26-764, looked up)
chain: TPWSLARPQGSCSLEGVEIKGGSFRLLQEGQALEYVCPSGFYPYPVQTRTCRSTGSWSTLKTQDQKTVRKAECRAIHCPRPHDFENGEYWPRSPYYNVSDEISFHCYDGYTLRGSANRTCQVNGRWSGQTAICDNGAGYCSNPGIPIGTRKVGSQYRLEDSVTYHCSRGLTLRGSQRRTCQEGGSWSGTEPSCQDSFMYDTPQEVAEAFLSSLTETIEGVDAEDGHGPGEQQKRKIVLDPSGSMNIYLVLDGSGSIGASNFTGAKKCLVNLIEKVASYGVKPRYGLVTYATYPKIWVKVSEADSSNADWVTKQLNEINYEDHAAASGTNTKKALQAVYSMMSWPDDVPPEGWNRTRHVIILMTDGLHNMGGDPITVIDEIRDLLYIGKDRKNPREDYLDVYVFGVGPLVNQVNINALASKKDNEQHVFKVKDMENLEDVFYQMIDESQSLSLCGMVWEHRKGTDYHKQPWQAKISVIRPSKGHESCMGAVVSEYFVLTAAHCFTVDDKEHSIKVSVGGEKRDLEIEVVLFHPNYNINGKKEAGIPEFYDYDVALIKLKNKLKYGQTIRPICLPCTEGTTRALRLPPTTTCQQQKEELLPAQDIKALFVSEEEKKLTRKEVYIKNGDKKGSCERDAQYAPGYDKVKDISEVVTPRFLCTGGVSPYADPNTCRGDAGGPLIVHKRSRFIQVGVISWGVVDVCKNQKRQKQVPAHARDFHINLFQVLPWLKEKLQDEDLGFL
notes: complement factor B (FB), human; also called FB AAA; 348-AAA-350
Regarding B1, the binding result with Biotinylated C3b is reported as “binds”.

B2: hFPNb1, FP specific non-inhibitory nanobody (VHH)
VHH: QVQLVESGGGLVQAGGSLRLSCAASERTFTIYAMGWFRQAPGKEREFVAAISRSGENTDYADSVKGRFTISRDNNKNTISLQMNSLKPEDTAVYYCAAGRAILVHTTKKEYDHWGQGTQVTVSS
notes: llama nanobody selected by phage display against FPc
As for B2, the binding result in assay [1] and in assay [2] was “binds” throughout.
